{"source": "the DeepSol protein solubility set", "data": [{"experiment": "soluble on expression in E. coli; label from the status in PepcDB or PDB records", "values": [{"sequence": "MAHHHHHHMQTLDINNSFAVPFDEDPQDAGVWFFDTNYAQEMFAMHKRVLPKVKVVGWYSSGPTIQPNDMLLHLLVADRFCLNPVYCVVNTDPNNKGVPVRAYTTVQGREGTRSLEFRNIPTHLGAEEAEEIGIEHLLRDLTDSTITTLSTQVQERELSLVHLCKVLQQIEEYLKDVGNAVMPISEDVLEVLQELISLQPEIYARRSSTEMIRHTNDEAIATFLAAIARCIGALHGVIMNRRKLARELQEIKDRRARAAETRLENEKMKIEEAAKEKDTNQA", "soluble on expression in E. coli": "soluble"}, {"sequence": "MKSNHYMSIMEEFYMDKNLLEITGYDGEGYVPLIDYSHWRVAELRYCEELEVDKLKDMQKHDETDEVFVLLEGDFTLFLGGNGEHIGEIEAIKLEPLKLYNVKRGTYHTHTPEKNSTVLIVENVDTTDDNSPKEKLTLEQKKIIEKLYKEVNS", "soluble on expression in E. coli": "not soluble"}, {"sequence": "MGSDKIHHHHHHMAVKTIRTLAHFITACSEIKVKDDHTLFYRGHASDIYTPFPTIFRNQNDDPKKSRYIESEGELFHNLVTQCPEEFKDCTSTFDFLVKMQHYGLPTRLLDITSNPLVALYFACCTLIPESTKDKNAKNGQVLVYQVPNEEIKYYNSDTVSVISNLARVNTSFNFTDEEDRERFLHSIQAEKPYFKPYIKEAHLHSVICVKPKLDNRRIVKQSGAFFLFGMGKNKTDSIRISDKYRPDIKHIDIPKSSKETLLRELATLSISEATLFPEIDNVARFLKKEVKIKSLVVEEIEEEKLGNEISVAYQEFILNSLVLNTDLLEQIQHNSADRAMLGLYPELLQKAIIESQENYNEIALKLLVEEDSADKFAKNIFSKLKHKLEELS", "soluble on expression in E. coli": "not soluble"}, {"sequence": "GMENIEYVFEDVVRIYDTDAQGIAHYAAYYRFFTNTIEKFIKEKVGIPYPIVNENLWFVIAESHAIYHRPVKLGDKLTVLLNPKILSNKTIKFEFKVLKDGELTTEGYVIQIAINPKIWKSTEMPKEIMDKLSIK", "soluble on expression in E. coli": "soluble"}, {"sequence": "MAHHHHHHMQMEEKQAFFVESVDGRKFKMVIRGDLGKLSVAKIRRYLKSYGVPENQLLLAGNRVLEDAMLGEQFGLENEGVLHLREPTTVQHLAPAAVPSTAQSRTQLQQKPELSYEPQSAWRETRYEPAAHDARQMQREIERLQRQVEAAEARNADLEHQLEQVAESSAPYPPRGGA", "soluble on expression in E. coli": "not soluble"}, {"sequence": "MSLKLKEEERMTEMILEYKNQLCKQNKLIQEKKENVLKMIAEVKGKEQESEELTAKIQELKEEYARKRETISTANKANEERLKGLQKSADLYRDYLGLEIRKIHGNKLQFIFTSIDPKNPESPYMFSMSINEAKEYEVYDSSPHLECLAEFQEKVRKTNNFSAFLANIRKAFIAKVHN", "soluble on expression in E. coli": "not soluble"}, {"sequence": "MPAKTGQEYMERLKRAKSSVYIHGEKVEDVTVHPAFRNVVRSMAALYDRQYEKPEKMLYRSPTTGQLVGMTFIQPTTIDELIARREATQEWARMSAGMMGRSPDYLNAEVMAMGVANDLFAEDDPMFAENAKNYYEYARENDISLTHTLIHPQMNRAKALHEQNDADVPLHLVERRKDGIIVSGIRLLATQGGITDEILVFPSTVKKSTAGEDPYALAFAIPNNTPGVKFICREAFDYGRSSWDHPLASRFEEGDAIVSFENVFVPWERVFVCGNSSICNRTFRETNAVIHMSHQVVAKNIVKTEFLLGVTLCLIEAIGIGEFQHVKDKGAEIMLVLETMKSHLYRAEHNAKRDRWGTMTPDFAALDAARNWYPRIYPRLSEIIRILGASGLMAIPTEADFHNEEIGEIVSRAMQGATVDGYERVQLFRLAWDLTMSAFGARQTHYEYYFFGDPVRMGMAYFDGYEKEPYKQFVREFLRGAKSVFIPSDNKH", "soluble on expression in E. coli": "not soluble"}, {"sequence": "MSLSKVYLVPTPIGNLGDITLRALEVLKNVDLIAAEDTRQTLKLLNHFEIKKPLISYHKHNEQGKGEEILRRVKEGTSVAIVSDAGTPGISDPGSVVVEKCIEEGIEFEVLPGATAFTTALIYSGLDTTKFMFKGFFPRENKDKRSFIEDIKDRTETIIIYESPYRILDTIDTLKEGLGNRKVAICRELTKLHEEIFRGTLEEAKIHFEENAPKGEFVCVISGKTDKEIEEENTSKWISMSIEEHIIHYIDNEGMKKKDAIKQVAKDRGVAKSEIYKFSLDEGHHHHHH", "soluble on expression in E. coli": "soluble"}, {"sequence": "MSLVKPKYQRVVLKLSGEALAGEDGFGIKPPVIKEIVQEIKEVHELGIEMAIVVGGGNIWRGQIGAQMGMERAQADYMGMLATVMNALALQDTLENLGVPTRVQTSIEMRQIAEPYIRRRAERHLEKGRVVIFAGGTGNPYFSTDTTAALRAAEVDADVILMAKNNVDGVYSADPRVDETATKFEELTHLDVISKGLQVMDSTASSLSMDNDIPLVVFNLNEAGNIRRAILGENIGTTVRGKEGHHHHHH", "soluble on expression in E. coli": "soluble"}, {"sequence": "MASQAASKAVTFAYNGTIASTLRKFAWSNLWGGREYGLQFHDTYFEPAPEVTEALRRLNLQEPHVFDQRKIRLSRAHTLALHGEKLPKAEWTQWDQESWYLKPYLDEIEAEKKARAETSGLIPPYQMKQH", "soluble on expression in E. coli": "not soluble"}, {"sequence": "EGVAVMLFYSVGELFQDKAIDKAKRNISALLDVRPEKAVVVRSNEIVTVDPRSVLINEIIEIKAGERVPLDGVMLDEVAAFNTAALTGESVPRDISRGEEVLAGMIVTDKVIRMKVTKPFDKSALARILELVE", "soluble on expression in E. coli": "not soluble"}, {"sequence": "MGSDKIHHHHHHMAQRVGPTRRGVDGTPVEPLSIKHPNAAGIDIGGASHYVAVPPDRVGKGEPAVREFGPHTEDLVAVANWLCACRIDTVALESTGVYWIALYELLQARGFEVWLVDAKSVRHVKARKSDVLDCQWLQQLHSFGLLSQAHRPDEQVCALREMSRLRDITIDERARHTQRMQKALTQMNVQLTNVITDITGETGMNIIRAIVAGGATAWPSRS", "soluble on expression in E. coli": "not soluble"}, {"sequence": "MRFSPIIGPSSYVSSLCHSILRGELFSTCSVGCIYCYARWYRGAHGKEKPLWESLKLIKMLGGIIREGLAITPIRVSTLSDPFQGEGKITLKFLKLALKEKVPVIINTKLIPREKHIKTIERLAEEGLVVVQVSLPTLEETKVLEPFSPSPGQRLELIERLSRAGVPTIVRVQPFVPGWIRDIHTFIEEIASAGARMIILEFLRIEKELLPLFSKLFPGEDIYKREWESYLPGTSTEEAPLLHPPLDYRLSIAREFSIKAEKEGLAFSTCKEGLFEFHTPLNVDCCGMAFFDVEYISRRPTLWDLYLEIVENGKAKGEDLWERCRREELLCRENLTPYPRWFRRGFIAHEKRLESVLRKPHIVERITPSIKYENGYFIKRKERSNSGYNSFF", "soluble on expression in E. coli": "not soluble"}, {"sequence": "VYSDPLREAIAEAEQLVAAAPHIETEADLLEGLQYLAGCIAGCMHLAFDYERDHPFLQSGTGPFTKMGLDNPDTLYFGTRLQANRDYVVSGRRGTTTDLSFQLLGGEYTDYNVPASQAAFDDRELDIAADGSFEWRLRPSAPGQLVIREVYGDWSQQRGTLAIARLDTVGTAPPPLTRELMEKRYATAGSQLVNRVKTWLQFPQWFYLNIPVNTMVAPRLTPGGLATQYSSAGHFELRPGQALVITVPVSDAPYLGFQLGSMWYISLDYINHQTSLNASQAQADPDGKVRIVVAEQNPGVTNWVETLGHRRGFLQFRWQRVSRELTEADGPTVELVDFDAIPAALPHYQHNKISEDDWRARIALRQRQIATRMLG", "soluble on expression in E. coli": "not soluble"}, {"sequence": "TDKTFFDAKMEEQAKRHAQHNNTESNLEPDIKNAPGGIRDMNQIGWIAKRHFRVNRIYDLVHLGFITEYELKVLEEAESFLWEIRHHLHLLSKRDENRLLFDHQREIAAKFGYTRAEGQPVNFAVEQFMKRYYRTAQQVSTLNEMLLAYFNESVITPRLPNYERKIEEINENFKLVDGKLAVQHHKVFSENPSAILELFYLLANHPEIEGIRARTLRLLIMAAKRID", "soluble on expression in E. coli": "not soluble"}, {"sequence": "MSEEIKKIEEVAEQDKAPKVPTTEPPVDVPAPVTEEAPKVEEAVAEIAAPAAAEGETATAAAAAPEEKKKSGGVARRFTFNKRWGKHRDAEASTPKEPEAPKDPKEDVLGWIAQQIPQAVHKANYQVIDWVQKTAIPEEGERKTIPGKDQATTRNQFIGFFKDGDVLAKLANALEPGAVEVAAAEENADAAAQKEVQKKNIDAFGAWAQKTLGTEAAPVTNEDLLEKGKAGYTAVFQTLWQLGVQAKEKFDKEGFNVDTIVQLANSVVKSGLLTTILGFFRRNRQAAAAVEEPKDETAAAEGAGEAKEEGATGEVADTADEPVAVKQETSAPAAVAAN", "soluble on expression in E. coli": "not soluble"}, {"sequence": "MTALTEGAKLFEKEIPYITELEGDVEGMKFIIKGEGTGDATTGTIKAKYICTTGDLPVPWATILSSLSYGVFCFAKYPRHIADFFKSTQPDGYSQDRIISFDNDGQYDVKAKVTYENGTLYNRVTVKGTGFKSNGNILGMRVLYHSPPHAVYILPDRKNGGMKIEYNKAFDVMGGGHQMARHAQFNKPLGAWEEDYPLYHHLTVWTSFGKDPDDDETDHLTIVEVIKAVDLETYR", "soluble on expression in E. coli": "soluble"}, {"sequence": "MSRTIWLVRHGQRVDNVDKKWKANNDAKWDDPELTLRGKQQAHEVGKHFANMNIEAIVVSPFTRCIETAAQIVAMMENKAKICVEPGLMEPLYLCKNPPTIPSMDKIKEYSTQVDESYKPVFEKLPISEISLLFSEISLLFPMVLHWQTSTLS", "soluble on expression in E. coli": "not soluble"}, {"sequence": "MGSDKIHHHHHHMTEPTRHQEHETETQEADLPNVCVVTHPLAAAGENATRSLLDILSAITSVALVTADLPADSEIRDRHELVELTQKGAGDSVVIAAFRFLLNQLRMCRVIAGRDEDVVLFFGATSYLLPIVVTRLLGKTVLVEPRGDVPLTLRLNWEQQLPDQVAAVLAGAVRALERAGFAVAHGVITYTPEMARQLDLHPESPSVYPTGARYVRTNEFCVQRPYADRDRVVGFLGRLDEEKGVRELAAVATQLPDDITFRFVGDGDLREWLEEDLAADIEAGHVELTGWVDHDKVPHALNDLELLILPSQPTEGLPTTILEALACGTPVYASPVSGVPDVVRDEETGFTIDSRESTALAAGIERILDRNDLAAISENGRTLIEREYSFDAACERYRGILRSVAGYSS", "soluble on expression in E. coli": "not soluble"}, {"sequence": "MDSQKDFNLGDSSKGEKEGMQPSTGNNQFEPFEFLKKMIQPGRVMKRSKNNLSSNEVWSVCRAVIDEFKKEQNLMEVSAPVTVIGDVHGNFHDLYRALLARTEQDITDEQKSNFSTRQFVRDKYVFLGNYIDKGPRSIECICLLFAFKICFPQKYILLRGPHECPSVNSSEFLGVMETFSPNHFKKIHKKFNEAFSWMPLAAVVGQKILCVHGGISPRLTSWEDIRKIKRPLKDATEDPLATDLLFADTLDFDLIHIPTRKPKYEFNVIRNMSVMYNEAAVTQFCEKFNLKLIIRSHMKVPFGYRFFSEKRLITIFNSTGFQNESNYGAVLKIDGNAKITIISLLPQQSKAEVQEKAHHSDMTSECNTMSSKGP", "soluble on expression in E. coli": "not soluble"}, {"sequence": "MKQTPPLISFITICYNGLDDTCMLIESLRDTISSVSYEIIVVDNASRQDEASLIQERYPFVRTLRSEKNLGFSGGNNLGIQIAQGKYLFLINNDTYLTEDGLPALIERLESDPRIGAVSPKIRFAFPPQSIQFAGYTKLSRYTMRNKALGMGCPDDGTFDTPRPSAYLHGAALMLKREVIWKAGLMPEIYFLYYEELDWCTSMTRAGYQLWYEPRCTIFHKESQSTGRQSPLRTFYMMRNRMLYAWRNLPGMERCLAIAYQMLIVAPKDSLCFVLKGEPKLAKAVWHGVKGFWKLCLEHHHHHH", "soluble on expression in E. coli": "soluble"}, {"sequence": "MGSSHHHHHHSSGRENLYFQGHMSKFVITCIAHGENLPKETIDQIAKEITESSAKDVSINGTKKLSARATDIFIEVAGSIVQKDLKNKLTNVIDSHNDVDVIVSVDNEYRQAKKLFVFDMDSTLIYQEVIELIAAYAGVEEQVHEITERAMNNELDFKESLRERVKLLQGLQVDTLYDEIKQKLEVTKGVPELCKFLHKKNCKLAVLSGGFIQFAGFIKDQLGLDFCKANLLEVDTDGKLTGKTLGPIVDGQCKSETLLQLCNDYNVPVEASCMVGDGGNDLPAMATAGFGIAWNAKPKVQKAAPCKLNTKSMTDILYILGYTDDEIYNRQ", "soluble on expression in E. coli": "soluble"}]}]}
